Results on 46 variants are retold here after the Human Domainome abundance scans (Beltran et al. 2025).

B1: Ubiquitin-protein ligase residues 30 to 86; numbered along this chain, Q05086 (parent)
chain: KHLIERYYHQLTEGCGNEACTNEFCASCPTFLRMDNNAAAIKALELYKINAKLCDPH

± gives the uncertainty stated by the source.

The variants in the data set derive from B1. The data set is described as follows: abundance fitness (aPCA) (normalised: wild type 0, dead -1); higher = more abundant; growth selection in yeast, the domain comes from the species named. As to conditions: Homo sapiens.
For KHLIERYYHQLTEGCGNEACTNEFCASCPTFLRMDNNAAAIKALELYKINAKLCDPA [H57A], the abundance fitness is -0.022 ± 0.15.
Turning to KHLIERYYHQLTEGCGNEACTNEFCASCPTFLRMDNNAAIIKALELYKINAKLCDPH [A40I], the abundance fitness was -0.242 ± 0.16.
KHLIERYYHQLDEGCGNEACTNEFCASCPTFLRMDNNAAAIKALELYKINAKLCDPH [T12D]: the abundance fitness is -0.353 ± 0.1.
In the case of KHLIERYYHQLSEGCGNEACTNEFCASCPTFLRMDNNAAAIKALELYKINAKLCDPH [T12S] it was -0.039 ± 0.063; in that of KHLIERYYHQLIEGCGNEACTNEFCASCPTFLRMDNNAAAIKALELYKINAKLCDPH [T12I], -0.062 ± 0.074; in that of KHLIERYYHQLTEGCCNEACTNEFCASCPTFLRMDNNAAAIKALELYKINAKLCDPH [G16C], -0.049 ± 0.071.
In the case of KHLIERYYHQLTEGCLNEACTNEFCASCPTFLRMDNNAAAIKALELYKINAKLCDPH [G16L] it was -0.11 ± 0.054.
In the case of KHLIERYYHQLTEGCWNEACTNEFCASCPTFLRMDNNAAAIKALELYKINAKLCDPH [G16W] it was -0.191 ± 0.063; in that of KHLIERYYHQLTEGCDNEACTNEFCASCPTFLRMDNNAAAIKALELYKINAKLCDPH [G16D], -0.041 ± 0.073; in that of KHLIERYYHQLTEGCGNEACTNEACASCPTFLRMDNNAAAIKALELYKINAKLCDPH [F24A], -0.041 ± 0.056.
Turning to KHLIERYYHQLTTGCGNEACTNEFCASCPTFLRMDNNAAAIKALELYKINAKLCDPH [E13T], the abundance fitness is -0.009 ± 0.061.
In the case of KHLIERYYHQLTLGCGNEACTNEFCASCPTFLRMDNNAAAIKALELYKINAKLCDPH [E13L] it was 0.006 ± 0.053; in that of KHLIERYYHQLTEGCGNEACTNEFCASCPTFLRMDNNAAAIKALELYKIIAKLCDPH [N50I], -0.356 ± 0.1; in that of KHLIERYYHQLTEGCGNEACTIEFCASCPTFLRMDNNAAAIKALELYKINAKLCDPH [N22I], -0.492 ± 0.14.
In the case of KHLIERYYHQLTEGCGNEACTLEFCASCPTFLRMDNNAAAIKALELYKINAKLCDPH [N22L] it was -0.727 ± 0.065; in that of KHLIERYYHQLTEGCGNEACTNEFCASYPTFLRMDNNAAAIKALELYKINAKLCDPH [C28Y], -0.06 ± 0.061; in that of KHLIERYYHQLTEGCGNEACTNEFCASCPTFLRYDNNAAAIKALELYKINAKLCDPH [M34Y], -0.035 ± 0.13.
In the case of KHLIERYYHQLTEGCGNEACTNEFCASCPTFLRGDNNAAAIKALELYKINAKLCDPH [M34G] it was -0.117 ± 0.084; in that of KHLIERYYHQLTEGCGNEACTNEFCASCPTFLRKDNNAAAIKALELYKINAKLCDPH [M34K], -0.23 ± 0.11.
Consider KHLIERYYHQLTEGCGNEACTNEFCASCPTFLRMDNNAAAIKALELYKINGKLCDPH [A51G], for which the abundance fitness is -0.075 ± 0.049.
The figure for KHLIERYYHQLTEGCGNEACTNEFRASCPTFLRMDNNAAAIKALELYKINAKLCDPH [C25R] is -1.05 ± 0.12; for KHLIERYYHQLTEGCGNEACTNEFCASCPTFQRMDNNAAAIKALELYKINAKLCDPH [L32Q] it is 0.043 ± 0.13; for KHLIERYYHQLTEGCGNEACTNEFCASCPKFLRMDNNAAAIKALELYKINAKLCDPH [T30K] it is 0.012 ± 0.096.
With KHLIERYYHQLTEGCGNEACTNEFCASCPNFLRMDNNAAAIKALELYKINAKLCDPH [T30N], the abundance fitness is -0.052 ± 0.13.
Regarding KHLIERYYHQLTEGCGNEACTNKFCASCPTFLRMDNNAAAIKALELYKINAKLCDPH [E23K], the abundance fitness is -0.054 ± 0.078.
In the case of KHLIERYYHQLTEGCGNEACTNYFCASCPTFLRMDNNAAAIKALELYKINAKLCDPH [E23Y] it was -0.102 ± 0.097.
The figure for KHLIERYYHQLTEGCGNEACTNEFCASCPTFLRMDNNAAAIKALELPKINAKLCDPH [Y47P] is -0.05 ± 0.092.
In the case of KHLIERYYHQLTEGCGNEACTNEFCASCPTFLRMDNNAAAIKALELGKINAKLCDPH [Y47G], the abundance fitness was found to be 0.008 ± 0.047.
In the case of KHLIERYYHQLTEGCGNEACTNEFCASCPTFLRMDNNAAAIKALELLKINAKLCDPH [Y47L] it was 0.027 ± 0.056; in that of KHLIERYYHQLTEGCGNEACTNEFCASCPTFLRMDNNAAAIKALELAKINAKLCDPH [Y47A], 0.088 ± 0.059.
In the case of KHLIERNYHQLTEGCGNEACTNEFCASCPTFLRMDNNAAAIKALELYKINAKLCDPH [Y7N], the abundance fitness is -0.658 ± 0.2.
On to KHLIERMYHQLTEGCGNEACTNEFCASCPTFLRMDNNAAAIKALELYKINAKLCDPH [Y7M], for which the abundance fitness is -0.215 ± 0.075.
In the case of KHLIERYYHQLTEGCGNEACTNEFCASCPTFLRMDNNAAATKALELYKINAKLCDPH [I41T] it was -0.013 ± 0.063; in that of KHLIERYYHQLTEGCGNEACTNEFCASCPTFLRMDNNAAAVKALELYKINAKLCDPH [I41V], 0.01 ± 0.057; in that of KHLIERYYHQYTEGCGNEACTNEFCASCPTFLRMDNNAAAIKALELYKINAKLCDPH [L11Y], -0.566 ± 0.11.
On to KQLIERYYHQLTEGCGNEACTNEFCASCPTFLRMDNNAAAIKALELYKINAKLCDPH [H2Q], for which the abundance fitness stood at 0.025 ± 0.071.
In the case of KLLIERYYHQLTEGCGNEACTNEFCASCPTFLRMDNNAAAIKALELYKINAKLCDPH [H2L] it was -0.005 ± 0.066; in that of KKLIERYYHQLTEGCGNEACTNEFCASCPTFLRMDNNAAAIKALELYKINAKLCDPH [H2K], -0.021 ± 0.12; in that of KSLIERYYHQLTEGCGNEACTNEFCASCPTFLRMDNNAAAIKALELYKINAKLCDPH [H2S], 0.019 ± 0.071.
With KHLIERYYHQLTEGCGNEACTNEFCASCPTFLRMDNNAAAIEALELYKINAKLCDPH [K42E], the abundance fitness was -0.109 ± 0.073.
On to KHLIERYYHQLTEGCGNEACTNEFCASCPTFLRMDNNAAAIRALELYKINAKLCDPH [K42R], for which the abundance fitness is -0.023 ± 0.052.
In the case of KHLIERYYHQLTEGCGNEACTNEFCASCPTFLRMDNNAAAISALELYKINAKLCDPH [K42S] it was -0.178 ± 0.069; in that of KHLIERYYHQLTEGCGNECCTNEFCASCPTFLRMDNNAAAIKALELYKINAKLCDPH [A19C], -0.12 ± 0.085; in that of KHLIERYYHQLTEGCGNEYCTNEFCASCPTFLRMDNNAAAIKALELYKINAKLCDPH [A19Y], -0.1 ± 0.11.
On to KHLIERYYHQLTEGCGNEACTNEFCASCPTFLRMDNDAAAIKALELYKINAKLCDPH [N37D], for which the abundance fitness worked out at 0.044 ± 0.096.
Regarding KHLIERYYHQLTEGCGNEACTNEFCASCPTFLRMDNWAAAIKALELYKINAKLCDPH [N37W], the abundance fitness was -0.454 ± 0.11.
